94 variants from the supplement of paper PMC10567573 can be followed below.

B1: RPAIN (parent)
chain: ISEYEKSLQFDEKCLSIMLAEWEA
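Also: lentivirally expressed fusions sorted by FACS into six bins by GFP to DsRed ratio, PSI derived from sequencing read proportions per bin multiplied by bin number.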

The data set covers variants of B1. The data set can be described thus: protein stability index of a GFP-peptide fusion (GPS, HEK-293T) (PSI 1-6); higher = more stable. Conditions: c terminus: a fixed tail appended.
With ISEYEKSLQVDEKCLSIMLAEWEA [F10V], the protein stability index is 2.45.

As to ISEYEKSLQYDEKCLSIMLAEWEA [F10Y], the protein stability index worked out at 1.97. Next, ISEYEKSLQWDEKCLSIMLAEWEA [F10W]: 2.88; ISEYEKSLQCDEKCLSIMLAEWEA [F10C]: 2.99.

On to ISEYEKSLQHDEKCLSIMLAEWEA [F10H], for which the protein stability index worked out at 3.33. Regarding ISEYEKSLQPDEKCLSIMLAEWEA [F10P], the protein stability index was 3.43. Consider ISEYEKSLQEDEKCLSIMLAEWEA [F10E], for which the protein stability index worked out at 3.47. For the variant ISEYEKSLQLDEKCLSIMLAEWEA [F10L], the protein stability index is 2.07. For ISEYEKSLQTDEKCLSIMLAEWEA [F10T], the protein stability index was found to be 3.01. In the case of ISEYEKSLQADEKCLSIMLAEWEA [F10A], the protein stability index stood at 3.21.

With ISEYEKSLQSDEKCLSIMLAEWEA [F10S], the protein stability index was 3.08. For ISEYEKSLQNDEKCLSIMLAEWEA [F10N], the protein stability index was 2.9. Consider ISEYEKSLQMDEKCLSIMLAEWEA [F10M], for which the protein stability index is 2.45. With ISEYEKSLQIDEKCLSIMLAEWEA [F10I], the protein stability index turned out to be 2.93.

Take ISEYEKSLQKDEKCLSIMLAEWEA [F10K]: the protein stability index was determined as 3.53. Regarding ISEYEKSLQQDEKCLSIMLAEWEA [F10Q], the protein stability index was determined as 3.51. In the case of ISEYEKSLQDDEKCLSIMLAEWEA [F10D] it was 3.15; in that of ISEYEKSLQGDEKCLSIMLAEWEA [F10G], 2.81; in that of ISEYEKSLQRDEKCLSIMLAEWEA [F10R], 2.96.

For ISEYEKNLQFDEKCLSIMLAEWEA [S7N], the protein stability index was 1.8.

For the variant ISEYEKELQFDEKCLSIMLAEWEA [S7E], the protein stability index amounted to 1.48. As for ISEYEKMLQFDEKCLSIMLAEWEA [S7M], the protein stability index is 1.56. Next, ISEYEKGLQFDEKCLSIMLAEWEA [S7G]: 1.67; ISEYEKILQFDEKCLSIMLAEWEA [S7I]: 1.6; ISEYEKPLQFDEKCLSIMLAEWEA [S7P]: 1.47. Take ISEYEKLLQFDEKCLSIMLAEWEA [S7L]: the protein stability index turned out to be 1.44.

For ISEYEKHLQFDEKCLSIMLAEWEA [S7H], the protein stability index is 2.7.

With ISEYEKRLQFDEKCLSIMLAEWEA [S7R], the protein stability index was 1.69. For the variant ISEYEKFLQFDEKCLSIMLAEWEA [S7F], the protein stability index was determined as 2.08. Take ISEYEKKLQFDEKCLSIMLAEWEA [S7K]: the protein stability index was 1.38. Next, ISEYEKYLQFDEKCLSIMLAEWEA [S7Y]: 1.76. As to ISEYEKWLQFDEKCLSIMLAEWEA [S7W], the protein stability index turned out to be 2.

Consider ISEYEKDLQFDEKCLSIMLAEWEA [S7D], for which the protein stability index was 1.93. Take ISEYEKQLQFDEKCLSIMLAEWEA [S7Q]: the protein stability index came to 2.13. Next, ISEYEKCLQFDEKCLSIMLAEWEA [S7C]: 2.46; ISEYEKSLQFDEKCRSIMLAEWEA [L15R]: 4.1; ISEYEKSLQFDEKCHSIMLAEWEA [L15H]: 3.17.

On to ISEYEKSLQFDEKCMSIMLAEWEA [L15M], for which the protein stability index amounted to 2.2.

Take ISEYEKSLQFDEKCFSIMLAEWEA [L15F]: the protein stability index was 2.21.

Turning to ISEYEKSLQFDEKCVSIMLAEWEA [L15V], the protein stability index came out at 2.09. Next, ISEYEKSLQFDEKCISIMLAEWEA [L15I]: 3.52; ISEYEKSLQFDEKCASIMLAEWEA [L15A]: 3.74.

For ISEYEKSLQFDEKCKSIMLAEWEA [L15K], the protein stability index turned out to be 4.06. Consider ISEYEKSLQFDEKCTSIMLAEWEA [L15T], for which the protein stability index stood at 3.73. For the variant ISEYEKSLQFDEKCGSIMLAEWEA [L15G], the protein stability index stood at 3.62. In the case of ISEYEKSLQFDEKCWSIMLAEWEA [L15W] it was 2.86; in that of ISEYEKSLQFDEKCSSIMLAEWEA [L15S], 3.92. ISEYEKSLQFDEKCPSIMLAEWEA [L15P]: the protein stability index came out at 4.02.

Regarding ISEYEKSLQFDEKCDSIMLAEWEA [L15D], the protein stability index is 4.09.

Consider ISEYEKSLQFDEKCNSIMLAEWEA [L15N], for which the protein stability index came out at 3.92. As for ISEYEKSLQFDEKCCSIMLAEWEA [L15C], the protein stability index stood at 2.66. Consider ISEYEKSLQFDEKCYSIMLAEWEA [L15Y], for which the protein stability index is 3.38. ISEYEKSLQFDEKCQSIMLAEWEA [L15Q]: the protein stability index came to 3.73. For ISEYEKSLQFDEKCESIMLAEWEA [L15E], the protein stability index stood at 4.41. Next, ISEYEKSLQFDEKDLSIMLAEWEA [C14D]: 2.16; ISEYEKSLQFDEKVLSIMLAEWEA [C14V]: 1.75; ISEYEKSLQFDEKALSIMLAEWEA [C14A]: 1.9. Regarding ISEYEKSLQFDEKILSIMLAEWEA [C14I], the protein stability index was determined as 2.16. For the variant ISEYEKSLQFDEKTLSIMLAEWEA [C14T], the protein stability index stood at 1.71. Consider ISEYEKSLQFDEKWLSIMLAEWEA [C14W], for which the protein stability index was found to be 1.35. With ISEYEKSLQFDEKMLSIMLAEWEA [C14M], the protein stability index was 1.58. As for ISEYEKSLQFDEKRLSIMLAEWEA [C14R], the protein stability index came to 2.32. Take ISEYEKSLQFDEKQLSIMLAEWEA [C14Q]: the protein stability index was 2.24. With ISEYEKSLQFDEKSLSIMLAEWEA [C14S], the protein stability index is 1.89.

Consider ISEYEKSLQFDEKFLSIMLAEWEA [C14F], for which the protein stability index was 2.38. On to ISEYEKSLQFDEKLLSIMLAEWEA [C14L], for which the protein stability index was 1.44. Next, ISEYEKSLQFDEKYLSIMLAEWEA [C14Y]: 1.16.

Consider ISEYEKSLQFDEKGLSIMLAEWEA [C14G], for which the protein stability index is 2.27.

ISEYEKSLQFDEKPLSIMLAEWEA [C14P]: the protein stability index was 3.42. On to ISEYEKSLQFDEKNLSIMLAEWEA [C14N], for which the protein stability index is 1.96. For ISEYEKSLQFDEKKLSIMLAEWEA [C14K], the protein stability index turned out to be 1.59. For the variant ISEYEKSLQFDEKHLSIMLAEWEA [C14H], the protein stability index was determined as 2.81. With ISEYEKSLQFDMKCLSIMLAEWEA [E12M], the protein stability index is 1.66.

Take ISEYEKSLQFDWKCLSIMLAEWEA [E12W]: the protein stability index was 1.85. In the case of ISEYEKSLQFDPKCLSIMLAEWEA [E12P] it was 1.76. In the case of ISEYEKSLQFDCKCLSIMLAEWEA [E12C], the protein stability index worked out at 1.9.

In the case of ISEYEKSLQFDQKCLSIMLAEWEA [E12Q], the protein stability index is 1.98. Regarding ISEYEKSLQFDKKCLSIMLAEWEA [E12K], the protein stability index amounted to 1.75. As for ISEYEKSLQFDAKCLSIMLAEWEA [E12A], the protein stability index turned out to be 2.34. Regarding ISEYEKSLQFDTKCLSIMLAEWEA [E12T], the protein stability index turned out to be 1.67. In the case of ISEYEKSLQFDHKCLSIMLAEWEA [E12H], the protein stability index was found to be 2.02. For the variant ISEYEKSLQFDYKCLSIMLAEWEA [E12Y], the protein stability index is 1.33. As for ISEYEKSLQFDDKCLSIMLAEWEA [E12D], the protein stability index was found to be 2.17. For ISEYEKSLQFDRKCLSIMLAEWEA [E12R], the protein stability index was 2.33. With ISEYEKSLQFDNKCLSIMLAEWEA [E12N], the protein stability index was 2.47.

ISEYEKSLQFDVKCLSIMLAEWEA [E12V]: the protein stability index turned out to be 1.26.

For ISEYEKSLQFDIKCLSIMLAEWEA [E12I], the protein stability index came out at 1.67. Next, ISEYEKSLQFDFKCLSIMLAEWEA [E12F]: 1.99. With ISEYEKSLQFDSKCLSIMLAEWEA [E12S], the protein stability index was found to be 1.92. In the case of ISEYEKSLQFDGKCLSIMLAEWEA [E12G] it was 2.27; in that of ISEYEKSVQFDEKCLSIMLAEWEA [L8V], 2.22. For the variant ISEYEKSFQFDEKCLSIMLAEWEA [L8F], the protein stability index stood at 1.9. Next, ISEYEKSYQFDEKCLSIMLAEWEA [L8Y]: 2.27. As to ISEYEKSKQFDEKCLSIMLAEWEA [L8K], the protein stability index was 2.47.
